The data set can be described thus: soluble on expression in E. coli; label from the status in PepcDB or PDB records.
With “MSLEELSLYTLRHVLERSAVLYADQPSLSQLGCEPLTFRDLHDHAEHLALWLRDNGVGTGDRVALLAENSPNWGIAYFAITGMGAIAVPILPEFHADAVQHILRHSEAKAVFVSERLFPKLEEGEGIADSLMCISMETFQSIAQGTTRDMLRELKSKGLREFRKLRDKAKRLANMADAAPAEDDVAAIIYTSGTTGHSKGVVLTHRNIVWDADAVKSIVKLGPGDRMLSILPLSHTYECTLGLVLPVLNGAHVHYMDKPPTARALLPAMAQVRPTAMLSVPLVIEKIFKTALLPKLTGSWLKQRLYAIPFVRRKLHALAGRKLLESFGGALRIFCIGGAGIAPDVERFLREANFPYAIGYGLTETAPLVAGSGPASTRLTSTGFTLDGVDIAIDAPDPATGEGEIIVRGPNVMREYYKAPQITASAFTPEGWFRTGDLGKFDADGYLYIKGRLKNVIIGPSGENIYPEEVEAIIHQSPFVLESLVFQQDGRLVARIHLDAARLDESFGDLPALKQREKIDALLETLRNEVNTKVSTFARLAKVIEQTEPFEKTPTHKIKRYLYVEQEGHHHHHH”, the “soluble on expression in E. coli” value was “soluble”. The entry for “MSLEEWIKADSLEKADEYHKRYNYAVTNPVRRKILRMLDKGRSEEEIMQTLSLSKKQLDYHLKVLEAGFCIERVGERWVVTDAGKIVDKIRG” is “soluble”; for “MSLEKESEWKGPFYFILGADPQFGLIKAWSTGDCDNGGDEWEQEIRLTEQAVQAINELNPKPKFFVLCGDLIHAMPGKPWRTEQTEDLKRVLRAVDRAIPLVLVSGNHDIGNTPTAETVEEFCRTWGDDYFSFWVGGVLFLVLNSQFYENPSKCPSLKQAQDQWLDEQLSIARQRHCQHAIVFQHIPLFLESIDEDDDYYFNLSKSTRKELADKFIHAGVRVVFSGHYHRNAGGTYQNLDMVVSSAIGCQLGRDPHGLRVVVVTAEKIVHRYYSLDELSEKGIEDDLMDLEGHHHHHH” it is “not soluble”; for “MSLEKKVLATVGNTEITSDYIDEIIARYPAQQQAMLASDEGKRQVLEQAIAFELMSEFAKETGLDKTEEFKDQLNKFAKELLAQMVMKKTLSSVTVTDDEAKAFYEEHKENFVELETVTAKHILVASEEEAKKVEEEIASGSITFEDAANKYSSCPSKEQGGNLGSFSKGMMVPEFEEAAFNLELGVVSAPVKTQFGYHLIKVEDKTEAKTKAFEDVKEQVVNMLIQERQQKKYLELIKELREKYGVKLAEGHHHHHH” it is “soluble”. The entry for “MSLEKLNLICVDDQREVLSAVLQDLEPLNKWLNIEDCESADEVLELMDELDADGEMIALIISDHVMPGKTGVELLTEISKDSRFVRTRKVLLTGQATHTDTINAINSAGIDRYFEKPWQANQLIECVRNLVTQYIFDEGHHHHHH” is “not soluble”; for “MSLEKSYWEQAHLQLPLKYTWKISRNASTEKINVIVFLCIDGRTYPGEAAPNVRYGESVELIDLQFKHFQTVWKDSLLQDEHAYNDVLDGLKLCQSLRFALESAYVHARCDKDPAFFERYTGIKMHTSPLATSYTLPIMDPGQIQEFIQTHDLTRFDTLKIKTGKEESKELIKTASRYFDKMIRVDANEAWTDPDLLIKELEELKRIPLEFIEQPFESAQKDAYKYFKKYSKIPVIADESITFAPDLKEIKELFHGVNMKLMKAGGYREGANILLKSKELGLKTMVGCMVETTLGIRSGMWISGHSDYIDLDGSFVIDNEPFKLVSENLGRLVIKQVNFFIEKWQKEGHHHHHH” it is “soluble”; for “MSLELNFSQTLGNHCLTINETLPANGITAIFGVSGAGKTSLINAISGLTRPQKGRIVLNGRVLNDAEKGICLTPEKRRVGYVFQDARLFPHYKVRGNLRYGMSKSMVDQFDKLVALLGIEPLLDRLPGSLSGGEKQRVAIGRALLTAPELLLLDEPLASLDIPRKRELLPYLQRLTREINIPMLYVSHSLDEILHLADRVMVLENGQVKAFGALEEVWGSSVMNPWLPKEQQSSILKVTVLEHHPHYAMTALALGDQHLWVNKLGEPLQAALRIRIQASDVSLVLQPPQQTSIRNVLRAKVVNSYDDNGQVEVELEVGGKTLWARISPWARDELAIKPGLWLYAQIKSVSITEGHHHHHH” it is “soluble”. As for “MSLENLQTNFSLVQGSTKKLNGMGDDGSPPAKKMITDIHVNGKTINKVPTVKKEHLDDYGEAPVETDGEHVKRTCTSVPETLHLNPSLKHTLAQFHLSSQSSLGGPAAFSARHSQESMSPTVFLPLPSPQVLPGPLLIPSDSSTELTQTVLEGESISCFQVGGEKRLCLPQVLNSVLREFTLQQINTVCDELYIYCSRCTSDQLHILKVLGILPFNAPSCGLITLTDAQRLCNALLRPRTFPQNGSVLPAKSSLAQLKETGSAFEVEHECLGKCQGLFAPQFYVQPDAPCIQCLECCGMFAPQTFVMHSHRSPDKRTCHWGFESAKWHCYLHVNQKYLGTPEEKKLKIILEEMKEKFSMREGHHHHHH”, the entry is “not soluble”; as for “MSLEQMLWDAACSIRGEKDAAKFKDYLLPLLFLKRLSDVFDDEIERLAEEYGDRATALEIAESDHSLLRFYLPPEARWAVISGRESFDWPLDDRGRPTAPRDIGEHLTKAVRAVVKQNPTLSGVIDVVDFAAERNGERDINPAKLRGVVETFSDPRYRLGLADVQPDFLGRAYEYLLRKFAEGSGQSAGEFFTPTEVGFLMAHILRPKPGETCHDYACGSAGLLIKLQLVARELDPTSRVPLKLSGQELQAESYAVAQMNAIIHDMEVELARGDTMINPKFREASGKIRGHDIVVANPMWNQPFAADLFANDPFDRFRTAGGITSGKGDWAWLQHTLACMNDHGRAAVVLDTGAVTRGSGSKNEDKERTIRKWFVEQDLIDGVILLPENLFYNTTAAGVIVVLSRRKPAARKGKIVLLNASRRFKKGRPKNYLPEEDIRPLAAMYLKGEPVEGELAVITTEQAREADYNLSPSRWVGQNGDAEIGSIPNLLRALEQLNEEDASLTSGLLQLLRPLAKTGDAEGHHHHHH”, “soluble”. “MSLERIRDLTSVQGVRQNSLIGYGLVVGLDGTGDQTTQTPFTTQTLNNMLSQLGITVPTGTNMQLKNVAAVMVTASLPPFGRQGQTIDVVVSSMGNAKSLRGGTLLMTPLKGVDSQVYALAQGNILVGGAGASAGGSSVQVNQLNGGRITNGAVIERELPSQFGVGNTLNLQLNDEDFSMAQQIADTINRVRGYGSATALDARTIQVRVPSGNSSQVRFLADIQNMQVNVTPQDAKVVINSRTGSVVMNREVTLDSCAIAQGNLSVTVNRQANVSQPDTPFGGGQTVVTPQTQIDLRQSGGSLQSVRSSASLNNVVRALNALGATPMDLMSILQSMQSAGCLRAKLEIIEGHHHHHH”: the “soluble on expression in E. coli” value is “soluble”. The entry for “MSLERKRVLVKFSGEALAGENGFGIENSILKFIASEIKELIKNQIEVGIVIGGGNIIRGVSAAKGGLIKRTSGDHMGMLATVINAIAIQEALESSGLEVRVQSAIQMEAFCETYIMRRAQRHLEKGRVVVFAAGTGNPYFTTDTTAILRAVEIDADMVIKATKVNGVYDKDPKQFDDAVFLNTLSYDEAMQDNIKVMDDTAIALAKDNKLPIVVCNMFEEGNLLKIIQGDTSLCSTVKNNEGHHHHHH” is “soluble”; for “MSLERNYEESALFEHQFWLKVLTDHAQFLLDALAPKEKEDIKKATYFVETFTNLLNKVRNVNLMAFSKEAEQAAKEIRAFKLNIIQKQLEGKITIHFTPTFINHMVNEVEEYIAVLEFLKKGEVPPVFHELHYHLVWLTDAAGHAGSISGGLDLVEKRLKEKSEEFTKHFEQFYLKAVEMTGYLRTELHHFPALKKFTKDVSLELKLFSHFLHEVEELELSNEVLSVLSARMADHMAREECYYLLKLAQSSGLEMPKCNPLEGHHHHHH” it is “soluble”. The entry for “MSLESVGDVLKRQPSRFHYQDLVQKIMKDPDVAAFVQQESLNQDELNRSISKFNQYITERDKFLRGDTDYIAKGYKPILVMNHGYADVSYEETPELIAAEKEAAIKKRLNLINFPSSLKNVSFLDVYRDDVQRLTVLKRMIEFVNDYPNNLKGLYLYGDFGVGKSFMVAALAHDLSEKRGVSSTLLHYPSFVIDVKNAIGDGNVKTLVDEIKLSEVLILDDIGAEQSTAWVRDEILQVILQYRMQENLPTFFTSNFNFEDLEKHFAKGKNGNDETWEARRVMERIRYLAEETRLEGVNRREGHHHHHH” is “soluble”.

For “MSLETAGQIIGGETAAVLIRQKAGEPIELGDLLVAEGEGYTILQVKDLRYSSQIPQGMRELASGFNLEGYGREVELLEPELRNYIIAEARPILHVRDGQPMIPKRLPRFFREVRRIREGDLDFLERPGNPVFLGNVRSGSKVLDTPVYVDAVDAITHHILIPATTGRGKSNLVKVMLWSLAEMDRVGILVLDPHDEYYGRNEAGLGRHPSDNVVYYSPDAPVGGNTLTINLRSLRPEHFEGIIPFTQAQEQAIARYYNEYGDGWILKIVEGEELPGVQPVTLNVLRRIFDVILGVHLDDGKIKSRGGVFRERGGESTIKDIAASLEDGKNRCGGHLKAHGRGEGHHHHHH”, the “soluble on expression in E. coli” value was “not soluble”. As for “MSLETSDAPHSSLVGNSVFVTHPDLKRLFQMAVSKSVREILIPAVEKAANMAVQSTVNIVLKDFATEVDEQKLKTAAINMVQYLAQNVAHSISVPLLKDTIRNTTQSLTPNLINMTNSPIAELNTAIDDNIAIAVSPIEKAAVERAIQEVNEKLVQAVAVRRYHLERRSDQPFVAQNINRFSLNLPDPLGLKPTGVTREQFSLYEQFPASMPSDSSRSPLETILAQEGHHHHHH”, the entry is “soluble”; as for “MSLETWYDFDLPLDRTDPITIIHFNDVYNIESRCDGTGGVSRFVTALQSFQHKHPLILFSGDVLNPSVMSTYTRGRHMVPFLNLLKIHTACFGNHDFDFGIDELEYAVGSCSFPWLISNVFEKTGQTGLPLANGMKYRLFEWQGIRVGIIGLVEKEWLDTLACIDKDDVVYVDFVEAANCLCRILRQKECELIIALTHMRAPNDERLAKEAEDIDLILGGHDHDYYGLQRIGNIPVVKSGTDFRDFTVITIHPGQGSRLDASSLPTPPTQNKFGSTTFVSEEAARREAAVTAEMFKGPLLPTTVEGGEEVMPFFLGGSIVEWSRVRVDPERFEKNKHVELLVKKYEQNLKKQMKQILVDAACDLETRFSVIRTSESNVGNWLCDLMRRECRADIAILNSGTIRSDCLFPPGPFRFGDLAAMLPMTDTLCVIAVHGNVLLQALENAVSQLPKTEGRFLQVAGIRFAFNSSKPVGQRVVRDSVKVAQDACGRVHSGAATPVGEGKKSESDYLPLDENRVYSVATKTYLAQGRDGFHMLSKCPVLVEDELLPPLPTMVRSALSMAEMANGIKRPHSRITFKRLTEGHHHHHH”, “not soluble”; as for “MSLEVIKHDGPGRLGVIRLEPPVQTPALAGVDFTLSPFNSFFYPKDYKEYDFNLAPAIPLSYYTPDEIIKKAVKRLWEVDYSKFNAFYFPALKRTKHYEELFKIIEENDFDAIYIGNSKSMIKDYRGFVFTMRELREKFPNAVLITDLEPFFYPLAVYLGIDAFDIRSLKIYSYEGLGFTQFSPIIWDEPKEDPVEYAKKIIRLIRIAIHEGKLRYLVENFLPTSMNAGILRIADRENIEYLEKYTPVDDKTVVFISDYSMTRPEVYRWAKRVRERFEPPKDIELLLILPCSAKKPYSRSRSHTLYRSAVKEALGEKMHRVHELIVTSPYGVVPREWEWIAKYDIVVTGHWSEREVRLAGELLADVLEKYPDIPIIAHVEGGYREAVKLAMELSGRDVIFTAKGNSTTSRESLANLTKTLKEFDVREGHHHHHH”, “not soluble”. The entry for “MSLEWCKNRLEITGRSVFVDIMQQWVTGEEVPLYRHAIQQSIRLFLAGCAGILKPVKCMEYPPFPRLVSHGTGSAVASNLAFQHWLDLLLKDAVLDGDTIRQIDRIYLQSGIASVKWETIPEGARQIITQLMARQYPDWFGVASWSSHINGADCWTKLGVMQEHACNCDMLMIIPTRLAIELNGNSQLLTGVSTTHDLYSHLYGMAWPSGQNIIWQRDRINSLRLDFDSPSYPPSAELMGELSAVFDCEIRHWYQEPVNGIRGYDCYDRGDHVDSGEYGAGPFLPPLKVEEVTVNGQEEAAEGHHHHHH” is “soluble”.

The record behind these values is the DeepSol protein solubility set.
